Data set [1] has as its target T1, Rad51-L2 (Schizosaccharomyces pombe, UniProt P36601 1-365, V295A).
T1 sequence: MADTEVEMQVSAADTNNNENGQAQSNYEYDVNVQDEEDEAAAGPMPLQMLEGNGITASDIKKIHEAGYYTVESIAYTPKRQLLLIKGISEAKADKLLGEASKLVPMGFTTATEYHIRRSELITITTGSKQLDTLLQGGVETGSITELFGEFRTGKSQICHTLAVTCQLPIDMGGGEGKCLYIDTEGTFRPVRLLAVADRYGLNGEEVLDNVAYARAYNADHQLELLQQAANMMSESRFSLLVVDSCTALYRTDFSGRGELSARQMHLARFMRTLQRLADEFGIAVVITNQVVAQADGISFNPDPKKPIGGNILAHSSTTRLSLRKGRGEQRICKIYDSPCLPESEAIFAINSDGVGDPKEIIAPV
The data set can be described thus: fluorescence anisotropy; 1 mM ATP, 3 mM MgCl2; Hill n 1.80; 30 mM HEPES-KOH pH 7.5, 100 mM KCl, 3 mM MgCl2, 1 mM DTT, 5% glycerol, 1 mM ATP, 25 C (EMSA: 2 mM ATP, 37 C, then 0.2% glutaraldehyde). As to conditions: protein: recombinant; label: 5' TAMRA on strand 1; blunt. (In general: In fluorescence polarisation assays a small probe gives low polarisation when free and higher when bound to something large.)

Data set [2] has as its target T2, Rad51 wild-type (Schizosaccharomyces pombe, UniProt P36601 1-365).
T2 sequence: T1 sequence with A295V
The data set can be described thus: fluorescence anisotropy; 1 mM ATP, 3 mM MgCl2; Hill n 1.99; main text prints 2.79 uM; 30 mM HEPES-KOH pH 7.5, 100 mM KCl, 3 mM MgCl2, 1 mM DTT, 5% glycerol, 1 mM ATP, 25 C (EMSA: 2 mM ATP, 37 C, then 0.2% glutaraldehyde). As to conditions: protein: recombinant; label: 5' TAMRA on strand 1; blunt.

The target in data set [3] is T1, Rad51-L2. Description: FRET; 1 mM ATP; 1.40x B-form; 30 mM HEPES-KOH pH 7.5, 100 mM KCl, 3 mM MgCl2, 1 mM DTT, 5% glycerol, 1 mM ATP, 25 C (EMSA: 2 mM ATP, 37 C, then 0.2% glutaraldehyde). As to conditions: protein: recombinant; label: internal fluorescein and ROX. On the technique in general: Mobility shift assays separate free from complexed probe on a gel.
Data set [4] concerns the target T3, Rad51-L1 (Schizosaccharomyces pombe, UniProt P36601 1-365, R257A).
T3 sequence: T1 sequence with R257A, A295V
Description: FRET; 1 mM ATP; elongation comparable to WT; 30 mM HEPES-KOH pH 7.5, 100 mM KCl, 3 mM MgCl2, 1 mM DTT, 5% glycerol, 1 mM ATP, 25 C (EMSA: 2 mM ATP, 37 C, then 0.2% glutaraldehyde). As to conditions: protein: recombinant; label: internal fluorescein and ROX.

For data set [5], the target named is T4, Rad51-S2 (Schizosaccharomyces pombe, UniProt P36601 1-365, R324A;K334A).
T4 sequence: T1 sequence with A295V, R324A, K334A
Described as above. As to conditions: protein: recombinant; label: internal fluorescein and ROX.

In data set [6] the target is T2, Rad51 wild-type. Description: FRET; 1 mM ATP; ssDNA elongated to 1.45x B-form; 30 mM HEPES-KOH pH 7.5, 100 mM KCl, 3 mM MgCl2, 1 mM DTT, 5% glycerol, 1 mM ATP, 25 C (EMSA: 2 mM ATP, 37 C, then 0.2% glutaraldehyde). As to conditions: protein: recombinant; label: internal fluorescein and ROX.
In data set [7] the target is T2, Rad51 wild-type. Description: FRET; 1 mM ATP; dsDNA elongated to 1.37x B-form; 30 mM HEPES-KOH pH 7.5, 100 mM KCl, 3 mM MgCl2, 1 mM DTT, 5% glycerol, 1 mM ATP, 25 C (EMSA: 2 mM ATP, 37 C, then 0.2% glutaraldehyde). As to conditions: protein: recombinant; label: internal fluorescein and ROX on strand 1; blunt.
The target in data set [8] is T1, Rad51-L2. The data set can be described thus: FRET; 1 mM ATP; reduced elongation, 1.28x B-form; 30 mM HEPES-KOH pH 7.5, 100 mM KCl, 3 mM MgCl2, 1 mM DTT, 5% glycerol, 1 mM ATP, 25 C (EMSA: 2 mM ATP, 37 C, then 0.2% glutaraldehyde). As to conditions: protein: recombinant; label: internal fluorescein and ROX on strand 1; blunt.
A further data set concerns the target T5, Swi5-Sfr1 complex (UniProt Q9UUB7 1-85; Q9USV1 1-299).
T5 construct: Swi5, subunit of the Swi5-Sfr1 complex; Sfr1, subunit of the Swi5-Sfr1 complex; Over-expressed and purified as a preformed complex; detected in the co-IP by blots for Sfr1 and Swi5; No tag is mentioned; also called Swi5-Sfr1 auxiliary factor; source: E. coli BL21-Codonplus(DE3) RIPL, purified as a complex (ammonium sulfate, Q Sepharose, HiTrap Heparin, Superdex 200)
T5 sequence (looked up) 1: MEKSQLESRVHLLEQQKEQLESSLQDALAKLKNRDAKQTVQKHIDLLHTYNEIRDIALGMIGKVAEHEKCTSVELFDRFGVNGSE
T5 sequence (looked up) 2: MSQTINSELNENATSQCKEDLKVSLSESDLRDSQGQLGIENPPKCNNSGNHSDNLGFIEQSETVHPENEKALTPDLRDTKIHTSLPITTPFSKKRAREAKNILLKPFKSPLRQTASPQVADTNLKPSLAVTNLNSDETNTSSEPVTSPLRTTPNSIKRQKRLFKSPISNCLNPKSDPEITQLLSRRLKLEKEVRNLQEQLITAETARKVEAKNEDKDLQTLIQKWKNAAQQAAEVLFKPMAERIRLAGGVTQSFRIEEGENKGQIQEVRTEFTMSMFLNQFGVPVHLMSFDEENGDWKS
The data set can be described thus: co-IP; purified Rad51 (2.5 uM) and Swi5-Sfr1 (2.5 uM) mixed in 30 mM Tris-HCl pH 7.5, 20 mM KCl, 3 mM MgCl2, 1 mM DTT, 5% glycerol, 0.05% NP-40, 30 min at 4 °C; precipitated with rabbit anti-Rad51 antibody and protein G magnetic beads; western blots for Rad51, Sfr1 and Swi5. As to conditions: both partners purified. A general note: A western blot detects proteins with antibodies after separation by electrophoresis.

Data set [9] deals with T4, Rad51-S2. The data set can be described thus: fluorescence anisotropy; 1 mM ATP, 3 mM MgCl2; Hill n 2.25; 30 mM HEPES-KOH pH 7.5, 100 mM KCl, 3 mM MgCl2, 1 mM DTT, 5% glycerol, 1 mM ATP, 25 C (EMSA: 2 mM ATP, 37 C, then 0.2% glutaraldehyde). As to conditions: protein: recombinant; label: 5' TAMRA.
Data set [10] addresses T1, Rad51-L2. Description: fluorescence anisotropy; 1 mM ATP, 3 mM MgCl2; Hill n 2.59; 30 mM HEPES-KOH pH 7.5, 100 mM KCl, 3 mM MgCl2, 1 mM DTT, 5% glycerol, 1 mM ATP, 25 C (EMSA: 2 mM ATP, 37 C, then 0.2% glutaraldehyde). As to conditions: protein: recombinant; label: 5' TAMRA.
Data set [11] has as its target T2, Rad51 wild-type. The data set can be described thus: fluorescence anisotropy; 1 mM ATP, 3 mM MgCl2; Hill n 2.86; 30 mM HEPES-KOH pH 7.5, 100 mM KCl, 3 mM MgCl2, 1 mM DTT, 5% glycerol, 1 mM ATP, 25 C (EMSA: 2 mM ATP, 37 C, then 0.2% glutaraldehyde). As to conditions: protein: recombinant; label: 5' TAMRA.
Data set [12] has as its target T3, Rad51-L1. Description: fluorescence anisotropy; 1 mM ATP, 3 mM MgCl2; Hill n 2.94; 30 mM HEPES-KOH pH 7.5, 100 mM KCl, 3 mM MgCl2, 1 mM DTT, 5% glycerol, 1 mM ATP, 25 C (EMSA: 2 mM ATP, 37 C, then 0.2% glutaraldehyde). As to conditions: protein: recombinant; label: 5' TAMRA.

The values below come from paper PMC7289862, “Real-time tracking reveals catalytic roles for the two DNA binding sites of Rad51” (Nature Communications, 2019).

Positions count from the first letter of the chain named. In names and notes the source's numbering stands.

A word on the Kd: it is the equilibrium constant for the complex coming apart.

B1: [TAMRA]16A(-)_72 bp duplex (dsDNA)
DNA 1: AAATGAACATAAAGTAAATAAGTATAAGGATAATACAAAATAAGTAAATGAATAAACATAGAAAATAAAGTA
DNA 2: TACTTTATTTTCTATGTTTATTCATTTACTTATTTTGTATTATCCTTATACTTATTTACTTTATGTTCATTT
As for B1, the Kd was 3.52 ± 0.31 µM with Rad51-L2 [1] and 2610 ± 200 nM in the data set with Rad51 wild-type [2].

B2: 16(A)(-)_F+R_73 ssDNA (ssDNA)
DNA: AAATGAACATAAAGTAAATAAGTATAAGGATAATACAAAATTAAGTAAATGAATAAACATAGAAAATAAAGTA
modifications: fluorescein-dT at 31; ROX-dT at 42
As to B2, the binding result with Rad51-L2 [3], in the data set with Rad51-L1 [4], with Rad51-S2 [5] and with Rad51 wild-type [6] was “binds” each time.

B3: 16(A)(-)_F+R_73 bp duplex (dsDNA)
DNA 1: B2 DNA
DNA 2: TACTTTATTTTCTATGTTTATTCATTTACTTAATTTTGTATTATCCTTATACTTATTTACTTTATGTTCATTT
modifications: fluorescein-dT at 31 and ROX-dT at 42 of strand 1
B3: the binding result with Rad51 wild-type [7] and with Rad51-L2 [8] was “binds” throughout.

B4: wild-type Rad51 from the fission yeast Schizosaccharomyces pombe (natural protein, UniProt P36601 1-365, looked up)
chain: T1 sequence with A295V
notes: Rad51 recombinase, Schizosaccharomyces pombe; No tag is mentioned; purification is by conventional chromatography; also called SpRad51; WT
B4: the binding result in the data set with Swi5-Sfr1 complex is reported as “binds”.

B5: Rad51-L1 mutant (R257A in loop 1) (natural protein, Schizosaccharomyces pombe, UniProt P36601 1-365, looked up)
chain: T1 sequence with R257A, A295V
notes: Rad51 recombinase, Schizosaccharomyces pombe, with R257A in L1; source: E. coli BL21-Codonplus(DE3) RIPL, purified (as wild-type Rad51, with a HiTrap Blue column instead of HiTrap Heparin)
Consider B5, for which the binding result in the data set with Swi5-Sfr1 complex is “binds”.

B6: Rad51-L2 mutant (V295A in loop 2) (natural protein, Schizosaccharomyces pombe, UniProt P36601 1-365, looked up)
chain: T1 sequence
notes: Rad51 recombinase, Schizosaccharomyces pombe, with V295A in L2; source: E. coli BL21-Codonplus(DE3) RIPL, purified (same procedure as wild-type Rad51)
As to B6, in the data set with Swi5-Sfr1 complex, the binding result is on record as “binds”.

B7: Rad51-S2 mutant (R324A and K334A in site II) (natural protein, Schizosaccharomyces pombe, UniProt P36601 1-365, looked up)
chain: T1 sequence with A295V, R324A, K334A
notes: Rad51 recombinase, Schizosaccharomyces pombe, with R324A and K334A in site II; source: E. coli BL21-Codonplus(DE3) RIPL, purified (same procedure as wild-type Rad51)
As for B7, the binding result with Swi5-Sfr1 complex is listed as “binds”.

B8: [TAMRA]dT72 (ssDNA)
DNA: TTTTTTTTTTTTTTTTTTTTTTTTTTTTTTTTTTTTTTTTTTTTTTTTTTTTTTTTTTTTTTTTTTTTTTTT
On to B8, for which the Kd with Rad51-S2 [9] was found to be 895 ± 55 nM; with Rad51-L2 [10], 308 ± 19 nM; with Rad51 wild-type [11], 358 ± 25 nM; in the data set with Rad51-L1 [12] it was 664 ± 18 nM.
